From patent US20210252150A1

Key:
[1] = target: HA of A/Texas/36/1991 (H1N1) (influenza A virus (H1N1))
[2] = target: HA of A/Solomon Islands/03/2006 (H1N1) (influenza A virus (H1N1))
[3] = target: HA of A/Texas/50/2012 (H3N2) (influenza A virus (H3N2))

Substance | EC50 [1] [µg/mL] | EC50 fold over wild-type rFluA-20 [2] [fold] | EC50 [2] [µg/mL] | EC50 [3] [µg/mL]
rFluA-20 light chain mutant Q55A (antibody) | 0.23 | > 100 |  | 
rFluA-20 light chain mutant N53A (antibody) | 0.04 |  | 0.05 | 0.09
rFluA-20 heavy chain mutant C101A (antibody) | 0.15 |  | 0.2 | 0.39
